Source: the Human Domainome abundance scans (Beltran et al. 2025)

B1: Far upstream element-binding protein 3, residues 75 to 150; numbered along this chain, Q96I24 (parent)
chain: RTVITEEFKVPDKMVGFIIGRGGEQISRIQAESGCKIQIASESSGIPERPCVLTGTPESIEQAKRLLGQIVDRCRN

Variants of: B1
Assay: abundance fitness (aPCA) (normalised: wild type 0, dead -1); higher = more abundant; growth selection in yeast, the domain comes from the species named
Settings: Homo sapiens

Abundance fitness, by site and new letter:
I46: N 0.031; F -0.023; W -0.093; K -0.003; V -0.007; S -0.018; C 0.023; P 0.016; T 0.032; M -0.053; R -0.046; E 0.063; H 0.02; D -0.061; Q -0.007; G 0.011; A 0.03; L 0.018
R28: Q -0.02; Y -0.173; V -0.202; P -0.617; S -0.085; T -0.064; W -0.118
A31: D -0.015; K 0.033; T -0.039; R -0.005; G -0.06; W -0.168; V -0.061; N -0.044; P -0.774; Y -0.076; M -0.07; H 0.057; Q 0.003; F -0.127; E 0.025; I -0.025; L -0.063; S -0.029
G45: S -0.051; I -0.158; Q -0.046; D -0.011; P -0.067; W -0.15; K -0.093; A -0.041; C -0.094; N -0.01; Y -0.168; R -0.055; H -0.065; M -0.101; E -0.052; L -0.124
I39: W -0.159; Q -0.399; P -0.394; M -0.067; Y -0.327; E -0.502; C -0.152; V -0.027; G -0.48; S -0.485; F -0.114; T -0.321; K -0.614; L -0.107; R -0.526; H -0.44; A -0.437
Q30: H -0.279; E 0.029; D -0.582; K -0.171; P -0.693; T -0.11; A -0.058; R -0.05; Y -0.31; V -0.142; G -0.171; M -0.097; I -0.131; S -0.051; F -0.464; L -0.471; W -0.487; N -0.369
E42: F -0.093; H 0.01; N -0.043; P -0.037; G -0.013; Q -0.035; R 0.005; V -0.041; A -0.039; D -0.023; I -0.139; W -0.069; Y -0.086; T -0.04; S -0.037; K -0.047; L -0.086
A40: K -0.024; H -0.032; P -0.024; D 0.002; W -0.1; N -0.076; Q 0.044; G -0.018; I -0.036; V -0.094; L -0.038; F 0.013; M -0.063; Y -0.112; T -0.04
Q38: H -0.059; D -0.092; W -0.107; G -0.105; C -0.053; N -0.086; E -0.013; A -0.038; R -0.055; Y -0.172; V -0.007; P -0.829; K -0.022; S -0.06; F -0.1; I -0.098; T -0.047; M -0.101
S33: P -0.728; N -0.685; E -0.641; G -0.747; F -0.591; R -0.827; C -0.079; A -0.138; D -0.648; Q -0.732; K -0.787; I -0.358; H -0.716; T -0.063; M -0.646; V -0.247
K36: E -0.02; A -0.065; V -0.101; M -0.066; G -0.112; Q -0.065; F -0.234; S -0.034; I -0.112; C -0.116; Y -0.14; R -0.027; D 0.001; W -0.18; L -0.057; P -0.811; T -0.051
I37: W -0.955; T -0.505; C -0.239; N -0.69; P -0.609; H -0.816; R -0.73; S -0.658; L -0.158; K -0.522; M -0.232; A -0.515; E -0.595; Q -0.665; D -0.528; Y -0.799; F -0.447; G -0.664
I29: K -0.676; W -0.521; D -0.432; S -0.595; R -0.856; L -0.034; C -0.191; Y -0.579; G -0.677; M -0.105; H -0.622; A -0.213; V -0.049; Q -0.599; E -0.621; P -0.625; F -0.278; T -0.271
C35: V -0.157; N -0.539; H -0.585; R -0.732; L -0.763; A -0.025; K -0.608; I -0.397; G -0.663; F -1.06; P -0.758; Q -0.588; Y -0.578; E -0.539; W -0.895; S -0.276
S44: G -0.021; L -0.017; R -0.046; P -0.058; E -0.009; I -0.07; K -0.005; H -0.013; V -0.05; Y -0.086; F -0.06; N -0.053; Q 0.006; T -0.015
S43: G -0.041; P 0.018; L -0.102; K -0.11; E -0.049; Q -0.055; A -0.064; R -0.079; N -0.125; M -0.079; F -0.092; C 0.017; D -0.036; I 0.028; V -0.057; W -0.155
P47: N -0.077; K -0.023; M -0.072; C -0.027; E -0.037; Q -0.068; H -0.028; S 0.024; I -0.021; F -0.096; L -0.043; V -0.041; Y -0.12; G -0.058; R -0.065; A -0.03; W -0.084; T -0.063
S41: Q 0.012; R 0.032; W -0.159; Y -0.164; A -0.035; F -0.176; I -0.092; D -0.06; G -0.015; T -0.02; V -0.089; H -0.099; P -0.027; K 0.058; N 0.022; C -0.026
E48: I -0.162; L -0.068; C -0.158; A -0.137; F -0.09; D 0.001
E32: K -0.054; R -0.039; P -0.95; D -0.005; M -0.045; S -0.093; H -0.2; V -0.073; I -0.04; Q 0.016; W -0.131; N -0.173; T -0.055; C -0.128; A -0.074; L -0.044; Y -0.049; G -0.237
G34: K -0.027; E -0.089; L -0.264; H -0.155; F -0.292; D -0.073; W -0.665; A -0.124; S -0.079; T -0.268; C -0.268; P -0.775; I -0.736; Y -0.361; R -0.079; Q -0.06; N -0.046
